Results on 38 variants are retold here after the RNAGym collection of RNA variant scans (doi:10.7554/elife.80360).

Sequences and labels used below:
B1: Hairpin Ribozyme (parent)
chain: GUCCUCUUUCACGUGCGCGUGAAAGAGAGAAGUGAACCAGAGAAACACACGUUGUGGUAUAUUACCUGGUA

This data set covers variants of B1. Description: self-cleavage, relative activity (ratio to wild type); higher = more cleavage; co-transcriptional.
For GUCCUCUUUCACGUGCGAGUGAAAGAGAGAAGUGAACCAGAGAAGCACACGUUGUGGUAUAUUACCUGGUA, the self-cleavage amounted to 0.187.
With GUCCUCUUUCACGUGCGAGUGAAAGAGAGAAGUGAACUAGAGAAACACACGUUGUGGUAUAUUACCUGGUA, the self-cleavage was determined as 0.526.
Under GUCCUCUUUCACGUGCGAGUGAAAGAGAGAAGUGAACGAGAGAAACACACGUUGUGGUAUAUUACCUGGUA stands 0.213.
With GUCCUCUUUCACGUGCGAGUGAAAGAGAGAAGUGAACCAGAGAAACACACGUUGUGGUAUAUUAGCUGGUA, the self-cleavage worked out at 0.091.
Next, GUCCUCUUUCACGUGCGAGUGAAAGAGAGAAGUGAACCAGAGAAACACACGUUGUGGUCUAUUACCUGGUA: 0.159; GUCCUCUUUCACGUGCGAGUGAAAGAGAGAAGUCAACCAGAGAAACACACGUUGUGGUAUAUUACCUGGUA: 1.56; GUCCUCUUUCACGUGCGAGUGAAAGAGAGAAGUGAACCAGAGAAAGACACGUUGUGGUAUAUUACCUGGUA: 0.12.
Next, GUCCUCUUUCACGUGCGAGUGAAAGAGAGAAGUGAACCAGAGAAACACACGUUGUGGUAUCUUACCUGGUA: 0.132; GUCCUCUUUCACGUGCGAGUGAAAGAGAGAAGUGAACCAGAGAAACACACGUUGUGGUAUGUUACCUGGUA: 0.25; GUCCUCUUUCACGUGCGAGUGAAAGAGAGAAGUGAACCAGAGAAACACACGUUGUGGUAUUUUACCUGGUA: 0.138.
Next, GUCCUCUUUCACGUGCGAGUGAAAGAUAGAAGUGAACCAGAGAAACACACGUUGUGGUAUAUUACCUGGUA: 0.332.
Turning to GUCCUCUUUCACGUGCGAGUGAAAGAGAGAGGUGAACCAGAGAAACACACGUUGUGGUAUAUUACCUGGUA, the self-cleavage came to 0.746.
Next, GUCCUCUUUCACGUGCGAGUGAAAGAGAGAUGUGAACCAGAGAAACACACGUUGUGGUAUAUUACCUGGUA: 0.0438; GUCCUCUUUCACGUGCGAGUGAAAGAGAGAAGUGAACCAGAGAAACAGACGUUGUGGUAUAUUACCUGGUA: 0.0794.
Next, GUCCUCUUUCACGUGCGAGUCAAAGAGAGAAGUGAACCAGAGAAACACACGUUGUGGUAUAUUACCUGGUA: 0.885; GUCCUCUUUCACGUGCGAGUAAAAGAGAGAAGUGAACCAGAGAAACACACGUUGUGGUAUAUUACCUGGUA: 0.895; GUCCUCUUUCACGUGCGAGUGAAAGAGAGAAGUGAAGCAGAGAAACACACGUUGUGGUAUAUUACCUGGUA: 0.351.
On to GUCCUCUUUCACGUGCGAGUGAAAGAGGGAAGUGAACCAGAGAAACACACGUUGUGGUAUAUUACCUGGUA, for which the self-cleavage was 1.43.
Take GUCCUCUUUCACGUGCGAGUGAAAGAGCGAAGUGAACCAGAGAAACACACGUUGUGGUAUAUUACCUGGUA: the self-cleavage is 0.492.
As to GUCCUCUUUCACGUGCGAGUGAAAGAGAGAAGUGAACCAGAGAAACACACGUUGUCGUAUAUUACCUGGUA, the self-cleavage worked out at 0.136.
Under GUCCUCUUUCACGUGCGAGUGAAAGUGAGAAGUGAACCAGAGAAACACACGUUGUGGUAUAUUACCUGGUA stands 0.898.
Turning to GUCCUCUUUCACGUGCGAGUGAAAGAGAGAAGUGAACCAGAGAAACACACGUUGUGUUAUAUUACCUGGUA, the self-cleavage was 0.439.
Next, GUCCUCUUUCACGUGCGAGUGAAAGAGAGAAGUGAACCAGAGACACACACGUUGUGGUAUAUUACCUGGUA: 0.219; GUCCUCUUUCACGUGCGAGUGAAAGAGAGAAUUGAACCAGAGAAACACACGUUGUGGUAUAUUACCUGGUA: 0.135; GUCCUCUUUCACGUGCGAGUGAAAGAGAGAAGUGAACCCGAGAAACACACGUUGUGGUAUAUUACCUGGUA: 0.538.
Next, GUCCUCUUUCACGUGCGAGUGAAAGAGAGAAGUGAACCUGAGAAACACACGUUGUGGUAUAUUACCUGGUA: 0.345.
For GUCCUCUUUCACGUGCGAGUGAAAGAGAGUAGUGAACCAGAGAAACACACGUUGUGGUAUAUUACCUGGUA, the self-cleavage worked out at 0.16.
Next, GUCCUCUUUCACGUGCGAGUGAAAGAGAGAAGUGAACCAGAGAAACACACCUUGUGGUAUAUUACCUGGUA: 0.896; GUCCUCUUUCACGUGCGAGUGAAAGAGAGAAGUGAACCAGAGAAACACACUUUGUGGUAUAUUACCUGGUA: 1.12.
GUCCUCUUUCACGUGCGAGUGAAAGAGAGAAGUGAACCAGAGAAACACCCGUUGUGGUAUAUUACCUGGUA: the self-cleavage came to 0.208.
On to GUCCUCUUUCACGUGCGAGUGAAAGAGAGAAGUGAACCAGAGAAACACAGGUUGUGGUAUAUUACCUGGUA, for which the self-cleavage was 0.309.
Next, GUCCUCUUUCACGUGCGAGUGAAAGAGAGAAGUGAACCAGUGAAACACACGUUGUGGUAUAUUACCUGGUA: 1.37; GUCCUCUUUCACGUGCGAGUGAAAGAGAGAAGUGCACCAGAGAAACACACGUUGUGGUAUAUUACCUGGUA: 1.2; GUCCUCUUUCACGUGCGAGUGAAAGAGAGAAGUGAACCAGAGAAACACACGUUGUGGUAUAUUACCUAGUA: 0.272.
Under GUCCUCUUUCACGUGCGAUUGAAAGAGAGAAGUGAACCAGAGAAACACACGUUGUGGUAUAUUACCUGGUA stands 0.923.
Next, GUCCUCUUUCACGUGCGAGUGAAAGAGAGAAGUGAACCAGAGAAACACACGUUUUGGUAUAUUACCUGGUA: 0.62; GUCCUCUUUCACGUGCGAGUGAAAGAGAGAAGUGACCCAGAGAAACACACGUUGUGGUAUAUUACCUGGUA: 0.711.
With GUCCUCUUUCACGUGCGAGUGAAAGAGAGAAGUGAACCAGAGAAACUCACGUUGUGGUAUAUUACCUGGUA, the self-cleavage is 0.181.
